Laboratory results as given in US11278600B2, “Human alpha-galactosidase variants” (Codexis, Inc., priority 2014, dated 2022).
Numbering of substitutions follows the chain as printed.

B1: 143 (protein)
chain: LDNGLARTPTMGWLHWERFMCNLDCQEEPDSCISEKLFMEMAELMVSEGWKDAGYEYLCIDDCWMAPQRDSEGRLQADPHRFPHGIRQLANYVHSKGLKLGIYADVGNKTCAGFPGSFGYYDIDAQTFADWGVDLLKFDGCYCDSLENLADGYKHMSLALNRTGRSIVYSCEWPLYMWPFQKPNYTEIRQYCNHWRNFADIDDSWKSIKSILDWTSFNQERIVDVAGPGGWNDPDMLVIGNFGLSWNQQVTQMALWAIMAAPLFMSNDLRHISPQAKALLQDKDVIAINQDPLGKQGYQLRQGDNFEVWERPLSGLAWAVAMINRQEIGGPRSYTIAVASLGKGVACNPACFITQLLPVKRKLGFYEWTSRLRSHINPTGTVLLQLENTMQMSKDLLL
modifications: Synthetic Polypeptide sequence of Variant No. 143 of mature Human GLA
B2: 144 (protein)
chain: B1 chain with H80V
modifications: Synthetic Polypeptide sequence of Variant No. 144 of mature Human GLA
B3: 150 (protein)
chain: B1 chain with H80Q, R162H
modifications: Synthetic Polypeptide sequence of Variant No. 150 of mature Human GLA
B4: 154 (protein)
chain: B1 chain with H80Q, R301I, K362T
modifications: Synthetic Polypeptide sequence of Variant No. 154 of mature Human GLA
B5: 153 (protein)
chain: B1 chain with H80Q, R221T
modifications: Synthetic Polypeptide sequence of Variant No. 153 of mature Human GLA
B6: 145 (protein)
chain: B1 chain with H80Q, Q88A
modifications: Synthetic Polypeptide sequence of Variant No. 145 of mature Human GLA
B7: 155 (protein)
chain: B1 chain with H80Q, R301L
modifications: Synthetic Polypeptide sequence of Variant No. 155 of mature Human GLA
B8: 146 (protein)
chain: B1 chain with H80Q, Q88F
modifications: Synthetic Polypeptide sequence of Variant No. 146 of mature Human GLA
B9: 152 (protein)
chain: B1 chain with H80Q, R221K, A350G
modifications: Synthetic Polypeptide sequence of Variant No. 152 of mature Human GLA
B10: 38 (protein)
chain: B1 chain with H80Q, D105S
modifications: Synthetic Polypeptide sequence of Variant No. 38 of mature Human GLA
B11: 149 (protein)
chain: B1 chain with H80Q, Q88S
modifications: Synthetic Polypeptide sequence of Variant No. 149 of mature Human GLA
B12: 147 (protein)
chain: B1 chain with H80Q, Q88H
modifications: Synthetic Polypeptide sequence of Variant No. 147 of mature Human GLA
B13: 156 (protein)
chain: B1 chain with H80Q, R371S
modifications: Synthetic Polypeptide sequence of Variant No. 156 of mature Human GLA
B14: 148 (protein)
chain: B1 chain with H80Q, Q88R
modifications: Synthetic Polypeptide sequence of Variant No. 148 of mature Human GLA
B15: 157 (protein)
chain: B1 chain with H80Q, R371V
modifications: Synthetic Polypeptide sequence of Variant No. 157 of mature Human GLA
B16: 151 (protein)
chain: B1 chain with H80Q, R162S
modifications: Synthetic Polypeptide sequence of Variant No. 151 of mature Human GLA

What was measured:
Assay type in all cases: biochemical
[1] = HTP-analysis of yeast culture supernatants, no challenge (MUGal hydrolysis); conditions: activity of the variant/activity of WT GLA (SEQ ID NO: 5), yeast supernatant
Summary of the method: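 Activity read as 4-methylumbelliferyl α-D-galactopyranoside hydrolysis: fluorescence (355/448 nm) after sodium carbonate stop, following 30-180 min at 37° C with 2 mM MUGal stock at pH 4.6–4.8. Enzyme source is unchallenged culture supernatant of INVSc1 yeast expressing GLA variants, grown 66-84 h at 30° C.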

[2] = HTP-analysis of supernatants pretreated with acid (MUGal hydrolysis); conditions: challenge at pH 4.2; activity of the variant/activity of WT GLA (SEQ ID NO: 5); yeast supernatant
Summary of the method: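 Supernatants from INVSc1 yeast secreting GLA variants were challenged at 37° C. for 1-3 h in McIlvaine buffer at pH 3.3-4.3. Residual activity was then measured on 4 mM MUGal substrate stock at pH 4.8 with citrate buffer pH 4.3, over 30-180 min at 37° C. Reactions were quenched with sodium carbonate and read by fluorescence (Ex 355/Em 448 nm).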

[3] = HTP-analysis of supernatants pretreated with base (MUGal hydrolysis); conditions: challenge at pH 7.1; activity of the variant/activity of WT GLA (SEQ ID NO: 5); yeast supernatant
Summary of the method: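 GLA variants secreted from yeast INVSc1; culture supernatants pre-incubated with McIlvaine buffer pH 7.0–8.2 or 200 mM bicarbonate pH 9.1–9.7 at 37° C. for 1–18 h. Residual activity: MUGal (4 mM stock) hydrolysis at pH 4.3–4.8, 37° C., 30–180 min, carbonate quench; fluorescence Ex 355/Em 448 nm.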

Row | Molecule | Relative Activity of GLA Variants After No Challenge (NC) [1] | Relative Activity of GLA Variants After Challenge at pH 4.2 [2] | Relative Activity of GLA Variants After Challenge at pH 7.1 [3]
1 | B1 | + (+ = 0.5 to 1.5 relative activity over WT GLA (SEQ ID NO: 5)) | + (+ = 0.5 to 1.5 relative activity over WT GLA (SEQ ID NO: 5)) | + (+ = 0.5 to 1.5 relative activity over WT GLA (SEQ ID NO: 5))
2 | B2 | + (+ = 0.5 to 1.5 relative activity over WT GLA (SEQ ID NO: 5)) | ++ (++ = >1.5 to 2.5 relative activity over WT GLA (SEQ ID NO: 5)) | + (+ = 0.5 to 1.5 relative activity over WT GLA (SEQ ID NO: 5))
3 | B3 | + (+ = 0.5 to 1.5 relative activity over WT GLA (SEQ ID NO: 5)) | + (+ = 0.5 to 1.5 relative activity over WT GLA (SEQ ID NO: 5)) | + (+ = 0.5 to 1.5 relative activity over WT GLA (SEQ ID NO: 5))
4 | B4 | ++ (++ = >1.5 to 2.5 relative activity over WT GLA (SEQ ID NO: 5)) | + (+ = 0.5 to 1.5 relative activity over WT GLA (SEQ ID NO: 5)) | ++ (++ = >1.5 to 2.5 relative activity over WT GLA (SEQ ID NO: 5))
5 | B5 | + (+ = 0.5 to 1.5 relative activity over WT GLA (SEQ ID NO: 5)) | + (+ = 0.5 to 1.5 relative activity over WT GLA (SEQ ID NO: 5)) | ++ (++ = >1.5 to 2.5 relative activity over WT GLA (SEQ ID NO: 5))
6 | B6 | + (+ = 0.5 to 1.5 relative activity over WT GLA (SEQ ID NO: 5)) | + (+ = 0.5 to 1.5 relative activity over WT GLA (SEQ ID NO: 5)) | + (+ = 0.5 to 1.5 relative activity over WT GLA (SEQ ID NO: 5))
7 | B7 | + (+ = 0.5 to 1.5 relative activity over WT GLA (SEQ ID NO: 5)) | + (+ = 0.5 to 1.5 relative activity over WT GLA (SEQ ID NO: 5)) | + (+ = 0.5 to 1.5 relative activity over WT GLA (SEQ ID NO: 5))
8 | B8 | + (+ = 0.5 to 1.5 relative activity over WT GLA (SEQ ID NO: 5)) | + (+ = 0.5 to 1.5 relative activity over WT GLA (SEQ ID NO: 5)) | + (+ = 0.5 to 1.5 relative activity over WT GLA (SEQ ID NO: 5))
9 | B9 | ++ (++ = >1.5 to 2.5 relative activity over WT GLA (SEQ ID NO: 5)) | ++ (++ = >1.5 to 2.5 relative activity over WT GLA (SEQ ID NO: 5)) | ++ (++ = >1.5 to 2.5 relative activity over WT GLA (SEQ ID NO: 5))
10 | B10 | − (− = <0.5 relative activity to WT GLA (SEQ ID NO: 5)) | + (+ = 0.5 to 1.5 relative activity over WT GLA (SEQ ID NO: 5)) | − (− = <0.5 relative activity to WT GLA (SEQ ID NO: 5))
11 | B11 | ++ (++ = >1.5 to 2.5 relative activity over WT GLA (SEQ ID NO: 5)) | + (+ = 0.5 to 1.5 relative activity over WT GLA (SEQ ID NO: 5)) | ++ (++ = >1.5 to 2.5 relative activity over WT GLA (SEQ ID NO: 5))
12 | B12 | ++ (++ = >1.5 to 2.5 relative activity over WT GLA (SEQ ID NO: 5)) | ++ (++ = >1.5 to 2.5 relative activity over WT GLA (SEQ ID NO: 5)) | ++ (++ = >1.5 to 2.5 relative activity over WT GLA (SEQ ID NO: 5))
13 | B13 | ++ (++ = >1.5 to 2.5 relative activity over WT GLA (SEQ ID NO: 5)) | + (+ = 0.5 to 1.5 relative activity over WT GLA (SEQ ID NO: 5)) | ++ (++ = >1.5 to 2.5 relative activity over WT GLA (SEQ ID NO: 5))
14 | B14 | + (+ = 0.5 to 1.5 relative activity over WT GLA (SEQ ID NO: 5)) | ++ (++ = >1.5 to 2.5 relative activity over WT GLA (SEQ ID NO: 5)) | + (+ = 0.5 to 1.5 relative activity over WT GLA (SEQ ID NO: 5))
15 | B15 | ++ (++ = >1.5 to 2.5 relative activity over WT GLA (SEQ ID NO: 5)) | + (+ = 0.5 to 1.5 relative activity over WT GLA (SEQ ID NO: 5)) | ++ (++ = >1.5 to 2.5 relative activity over WT GLA (SEQ ID NO: 5))
16 | B16 | + (+ = 0.5 to 1.5 relative activity over WT GLA (SEQ ID NO: 5)) | + (+ = 0.5 to 1.5 relative activity over WT GLA (SEQ ID NO: 5)) | + (+ = 0.5 to 1.5 relative activity over WT GLA (SEQ ID NO: 5))
